Results taken from US20210269521A1 (L AND L BIOPHARMA, published 2021).

Legend:
[1] = target: T1, human PD-1 extracellular domain protein expressed in Example 1 (tag not stated) (human, UniProt Q15116 25-170); experiment: ELISA, EC50 of bispecific over EC50 of the monoclonal control
T1 construct: extracellular domain; also called PD-1 protein; not shown: human IgG1 Fc or his tag
Method: After washing the microplate 5 times with PBST, 50 μl/well TMB chromogenic substrate (KPL, 52-00-03) was added to the microplate, followed by incubating at room temperature for 10-15 min.
(§1) PD-1 expressed in Example 1 was diluted to a concentration of 1 μg/ml with PBS buffer, pH 7.4, and added to a 96-well microplate (Corning, CLS3590-100EA) at 50 μl per well, thereby incubating in an incubator at 37° C. for 2 hours. After discarding the liquid, a blocking solution of 5% skimmed milk (Shanghai Shenggong Biological Engineering Co., Ltd., A600669-0250) diluted with PBS was added at 200 μl per well, followed by incubating at 37° C. for 3 hours or 4° C. overnight (16-18 hours)) for blocking. Subsequently, the blocking solution was discarded, and the microplate was washed 5 times with PBST buffer (pH 7.4 PBS containing 0.05% tween-20). […] Subsequently, the microplate was washed 5 times with PBST, then 50 μl/well of 1:2500 diluted HRP-labeled secondary antibody (Jackson Immuno Research, 115-035-003) was added, thereby incubating at 37° C. for 1 hour. After washing the microplate 5 times with PBST, 50 μl/well TMB chromogenic substrate (KPL, 52-00-03) was added, then incubated at room temperature for 5-10 min. Finally, 50 μl/well of 1M H₂SO₄ was added to stop the reaction. […] Go microplate reader (ThermoFisher, 51119200) was used to read the absorption value at 450 nm and the EC50 based on the OD value was calculated.

[2] = target: T2, human TIM-3 extracellular domain-human IgG1 Fc fusion protein (human, UniProt Q8TDQ0 22-199); experiment: ELISA
T2 construct: Made in house or bought (ACROBiosystems TM3-H5258); also called TIM-3-hFc; not shown: human IgG1 Fc
Method: Goat-anti-hFc (Jackson, 109-005-008) was diluted to a concentration of 1 μg/ml with PBS buffer (pH 7.4) and added to a 96-well microplate (Corning, CLS3590-100EA) at a volume of 50 μl/well, then incubated in an incubator at 37° C. for 2 hours (Or the antigen TIM-3 was directly used to coat the microplate with a concentration of 0.5 μg/ml, and then the antibody to be tested was directly added). After discarding the liquid, a blocking solution of 5% skimmed milk (skimmed milk powder purchased from Bright) diluted with PBS was added at 200 μl per well, and the microplate was incubated for 2.5 hours at 37° C. or overnight (16-18 hours) at 4° C. for blocking. The blocking solution was discarded, and the microplate was washed 5 times with PBST buffer (PBS with pH 7.4 containing 0.05% tween-20), then 50 μl/well of 0.5 μg/ml TIM-3-hFc (Example 1) was added and incubated for 2 hours in a 37° C. incubator. After incubation, the microplate was washed 6 times with PB ST. 50 μl/well of supernatant (containing testing antibody) or different concentrations of the antibody to be tested was added, and the microplate was incubated at 37° C. for 2 hours and washed 5 times with PBST. 50 μl/well of 1:2500 diluted HRP-labeled secondary antibody (Jackson Immuno Research, 115-035-003) was added to the microplate, incubating at 37° C. for 1 hour. After washing the microplate 5 times with PBST, 50 μl/well TMB chromogenic substrate (KPL, 52-00-03) was added to the microplate, followed by incubating at room temperature for 10-15 min.

[3] = target: T1, human PD-1 extracellular domain protein …; experiment: ELISA, PD-1 coated
Method: as §1

[4] = target: T2, human TIM-3 extracellular domain-human …; experiment: ELISA, EC50 of bispecific over EC50 of the monoclonal control

Binder | Multiple of EC50 variation [1] | EC50 [2] | EC50 [3] | Multiple of EC50 variation [4]
bispecific antibody LB1412 (bispecific antibody, human IgG4 S228P, kappa) light: EIVLTQSPATLSLSPGERATLSCRASKGVSTSGYSYLHWYQQKPGQAPRLLIYLASYLESGVPARFSGSGSGTDFTLTISSLEPEDFAVYYCQHSRDLPLTFGGGTKVEIKRTVAAPSVFIFPPSDEQLKSGTASVVCLLNNFYPREAKVQWKVDNALQSGNSQESVTEQDSKDSTYSLSSTLTLSKADYEKHKVYACEVTHQGLSSPVTKSFNRGEC heavy: not shown | 0.82 ratio | 3420 pM | 79 pM | 4.37 ratio
bispecific antibody LB1413 (bispecific antibody, human IgG4 S228P, kappa, ab6VL-(G4S)3-ab6VH-(G4S)3-PemVL-κ with PemVH-hIgG4) light: DIQMTQSPSSLSASVGDRVTITCHASQGISSNIGWLQQKPGKAFKGLIYQGSNLEDGVPSRFSGSGSGADYTLTISSLQPEDFATYYCVQFAQFPPTFGQGTKLEIKGGGGSGGGGSGGGGSEVQLVESGGGLVKPGGSLRLSCAASGFTFSDYYMAWVRQAPGKGLEWVANINYDGSNTYYLDSLKSRFTISRDNAKNSLYLQMNSLRAEDTAVYYCARGLYYYGGNYFAYWGQGTLVTVSSGGGGSGGGGSGGGGSEIVLTQSPATLSLSPGERATLSCRASKGVSTSGYSYLHWYQQKPGQAPRLLIYLASYLESGVPARFSGSGSGTDFTLTISSLEPEDFAVYYCQHSRDLPLTFGGGTKVEIKRTVAAPSVFIFPPSDEQLKSGTASVVCLLNNFYPREAKVQWKVDNALQSGNSQESVTEQDSKDSTYSLSSTLTLSKADYEKHKVYACEVTHQGLSSPVTKSFNRGEC heavy: not shown | 0.69 ratio | 521 pM | 66 pM | 0.67 ratio
bispecific antibody LB1414 (bispecific antibody, human IgG4 S228P, kappa) light: EIVLTQSPATLSLSPGERATLSCRASKGVSTSGYSYLHWYQQKPGQAPRLLIYLASYLESGVPARFSGSGSGTDFTLTISSLEPEDFAVYYCQHSRDLPLTFGGGTKVEIKRTVAAPSVFIFPPSDEQLKSGTASVVCLLNNFYPREAKVQWKVDNALQSGNSQESVTEQDSKDSTYSLSSTLTLSKADYEKHKVYACEVTHQGLSSPVTKSFNRGECGGGGSGGGGSGGGGSEVQLVESGGGLVKPGGSLRLSCAASGFTFSDYYMAWVRQAPGKGLEWVANINYDGSNTYYLDSLKSRFTISRDNAKNSLYLQMNSLRAEDTAVYYCARGLYYYGGNYFAYWGQGTLVTVSSGGGGSGGGGSGGGGSDIQMTQSPSSLSASVGDRVTITCHASQGISSNIGWLQQKPGKAFKGLIYQGSNLEDGVPSRFSGSGSGADYTLTISSLQPEDFATYYCVQFAQFPPTFGQGTKLEIK heavy: not shown | 0.47 ratio | 3520 pM | 45 pM | 4.5 ratio
bispecific antibody LB241 (bispecific antibody, human IgG4 S228P, kappa) light: DIQMTQSPSSLSASVGDRVTITCHASQGISSNIGWLQQKPGKAFKGLIYQGSNLEDGVPSRFSGSGSGADYTLTISSLQPEDFATYYCVQFAQFPPTFGQGTKLEIKGGGGSGGGGSGGGGSEVQLVESGGGLVKPGGSLRLSCAASGFTFSDYYMAWVRQAPGKGLEWVANINYDGSNTYYLDSLKSRFTISRDNAKNSLYLQMNSLRAEDTAVYYCARGLYYYGGNYFAYWGQGTLVTVSSGGGGSGGGGSGGGGSEIVLTQSPATLSLSPGERATLSCRASKGVSTSGYSYLHWYQQKPGQAPRLLIYLASYLESGVPARFSGSGSGTDFTLTISSLEPEDFAVYYCQHSRDLPLTFGGGTKVEIKRTVAAPSVFIFPPSDEQLKSGTASVVCLLNNFYPREAKVQWKVDNALQSGNSQESVTEQDSKDSTYSLSSTLTLSKADYEKHKVYACEVTHQGLSSPVTKSFNRGEC heavy: not shown | 3.8 ratio | 547 pM | 365 pM | 0.7 ratio
bispecific antibody LB242 (bispecific antibody, human IgG4 S228P, kappa) light: EIVLTQSPATLSLSPGERATLSCRASKGVSTSGYSYLHWYQQKPGQAPRLLIYLASYLESGVPARFSGSGSGTDFTLTISSLEPEDFAVYYCQHSRDLPLTFGGGTKVEIKRTVAAPSVFIFPPSDEQLKSGTASVVCLLNNFYPREAKVQWKVDNALQSGNSQESVTEQDSKDSTYSLSSTLTLSKADYEKHKVYACEVTHQGLSSPVTKSFNRGECGGGGSGGGGSGGGGSEVQLVESGGGLVKPGGSLRLSCAASGFTFSDYYMAWVRQAPGKGLEWVANINYDGSNTYYLDSLKSRFTISRDNAKNSLYLQMNSLRAEDTAVYYCARGLYYYGGNYFAYWGQGTLVTVSSGGGGSGGGGSGGGGSDIQMTQSPSSLSASVGDRVTITCHASQGISSNIGWLQQKPGKAFKGLIYQGSNLEDGVPSRFSGSGSGADYTLTISSLQPEDFATYYCVQFAQFPPTFGQGTKLEIK heavy: not shown | 0.32 ratio | 124 pM | 84 pM | 0.78 ratio
bispecific antibody LB243 (bispecific antibody, human IgG4 S228P, kappa) light: DIQMTQSPSSLSASVGDRVTITCHASQGISSNIGWLQQKPGKAFKGLIYQGSNLEDGVPSRFSGSGSGADYTLTISSLQPEDFATYYCVQFAQFPPTFGQGTKLEIKGGGGSGGGGSGGGGSEVQLVESGGGLVKPGGSLRLSCAASGFTFSDYYMAWVRQAPGKGLEWVANINYDGSNTYYLDSLKSRFTISRDNAKNSLYLQMNSLRAEDTAVYYCARGLYYYGGNYFAYWGQGTLVTVSSGGGGSGGGGSGGGGSEIVLTQSPATLSLSPGERATLSCRASKGVSTSGYSYLHWYQQKPGQAPRLLIYLASYLESGVPARFSGSGSGTDFTLTISSLEPEDFAVYYCQHSRDLPLTFGGGTKVEIKRTVAAPSVFIFPPSDEQLKSGTASVVCLLNNFYPREAKVQWKVDNALQSGNSQESVTEQDSKDSTYSLSSTLTLSKADYEKHKVYACEVTHQGLSSPVTKSFNRGECGGGGSGGGGSGGGGSEVQLVESGGGLVKPGGSLRLSCAASGFTFSDYYMAWVRQAPGKGLEWVANINYDGSNTYYLDSLKSRFTISRDNAKNSLYLQMNSLRAEDTAVYYCARGLYYYGGNYFAYWGQGTLVTVSSGGGGSGGGGSGGGGSDIQMTQSPSSLSASVGDRVTITCHASQGISSNIGWLQQKPGKAFKGLIYQGSNLEDGVPSRFSGSGSGADYTLTISSLQPEDFATYYCVQFAQFPPTFGQGTKLEIK heavy: not shown | 0.81 ratio | 216 pM | 214 pM | 1.36 ratio
bispecific antibody LB244 (bispecific antibody, human IgG4 S228P, kappa) light: DIQMTQSPSSLSASVGDRVTITCHASQGISSNIGWLQQKPGKAFKGLIYQGSNLEDGVPSRFSGSGSGADYTLTISSLQPEDFATYYCVQFAQFPPTFGQGTKLEIKGGGGSGGGGSGGGGSEVQLVESGGGLVKPGGSLRLSCAASGFTFSDYYMAWVRQAPGKGLEWVANINYDGSNTYYLDSLKSRFTISRDNAKNSLYLQMNSLRAEDTAVYYCARGLYYYGGNYFAYWGQGTLVTVSSGGGGSGGGGSGGGGSEIVLTQSPATLSLSPGERATLSCRASKGVSTSGYSYLHWYQQKPGQAPRLLIYLASYLESGVPARFSGSGSGTDFTLTISSLEPEDFAVYYCQHSRDLPLTFGGGTKVEIKRTVAAPSVFIFPPSDEQLKSGTASVVCLLNNFYPREAKVQWKVDNALQSGNSQESVTEQDSKDSTYSLSSTLTLSKADYEKHKVYACEVTHQGLSSPVTKSFNRGEC heavy: not shown | 0.68 ratio | 210 pM | 180 pM | 1.32 ratio
bispecific antibody LB245 (bispecific antibody, human IgG4 S228P, kappa) light: EIVLTQSPATLSLSPGERATLSCRASKGVSTSGYSYLHWYQQKPGQAPRLLIYLASYLESGVPARFSGSGSGTDFTLTISSLEPEDFAVYYCQHSRDLPLTFGGGTKVEIKRTVAAPSVFIFPPSDEQLKSGTASVVCLLNNFYPREAKVQWKVDNALQSGNSQESVTEQDSKDSTYSLSSTLTLSKADYEKHKVYACEVTHQGLSSPVTKSFNRGECGGGGSGGGGSGGGGSEVQLVESGGGLVKPGGSLRLSCAASGFTFSDYYMAWVRQAPGKGLEWVANINYDGSNTYYLDSLKSRFTISRDNAKNSLYLQMNSLRAEDTAVYYCARGLYYYGGNYFAYWGQGTLVTVSSGGGGSGGGGSGGGGSDIQMTQSPSSLSASVGDRVTITCHASQGISSNIGWLQQKPGKAFKGLIYQGSNLEDGVPSRFSGSGSGADYTLTISSLQPEDFATYYCVQFAQFPPTFGQGTKLEIK heavy: not shown | 1.3 ratio | 391 pM | 342 pM | 2.46 ratio
